# Experimental data taken from patent US20040176301A1 (CYCLACEL, published 2004).
# Square brackets hold non-standard residues; d marks the D form. Ends that are not written are not given here. Phe(3-F) = N[C@@H](Cc1cccc(F)c1)C(=O)O; Phe(4-F) = N[C@@H](Cc1ccc(F)cc1)C(=O)O; 1Nal = N[C@@H](Cc1cccc2ccccc12)C(=O)O; 2Nal = N[C@@H](Cc1ccc2ccccc2c1)C(=O)O; hPhe = N[C@@H](CCc1ccccc1)C(=O)O; Tic = O=C(O)[C@@H]1Cc2ccccc2CN1; Cha = N[C@@H](CC1CCCCC1)C(=O)O; Abu = CC[C@H](N)C(=O)O
# B1: H-His-Ala-Lys-Arg-Arg-Leu-Ile-1Nap-NH2 (peptide)
# peptide: H-HAKRRLI[1Nal]-NH2
# SMILES: CC[C@H](C)[C@H](NC(=O)[C@H](CC(C)C)NC(=O)[C@H](CCCNC(=N)N)NC(=O)[C@H](CCCNC(=N)N)NC(=O)[C@H](CCCCN)NC(=O)[C@H](C)NC(=O)[C@@H](N)Cc1c[nH]cn1)C(=O)N[C@@H](Cc1cccc2ccccc12)C(N)=O
# B2: H-His-Ala-Lys-Arg-Arg-Leu-Ile-Tic-NH2 (peptide)
# peptide: H-HAKRRLI[Tic]-NH2
# SMILES: CC[C@H](C)[C@H](NC(=O)[C@H](CC(C)C)NC(=O)[C@H](CCCNC(=N)N)NC(=O)[C@H](CCCNC(=N)N)NC(=O)[C@H](CCCCN)NC(=O)[C@H](C)NC(=O)[C@@H](N)Cc1c[nH]cn1)C(=O)N1Cc2ccccc2C[C@H]1C(N)=O
# B3: H-His-Ala-Lys-Arg-Arg-Leu-Ile-Cha-NH2 (peptide)
# peptide: H-HAKRRLI[Cha]-NH2
# SMILES: CC[C@H](C)[C@H](NC(=O)[C@H](CC(C)C)NC(=O)[C@H](CCCNC(=N)N)NC(=O)[C@H](CCCNC(=N)N)NC(=O)[C@H](CCCCN)NC(=O)[C@H](C)NC(=O)[C@@H](N)Cc1c[nH]cn1)C(=O)N[C@@H](CC1CCCCC1)C(N)=O
# B4: H-His-Ala-Lys-Arg-Arg-Leu-Ile-pFPhe-NH2 (peptide)
# peptide: H-HAKRRLI[Phe(4-F)]-NH2
# SMILES: CC[C@H](C)[C@H](NC(=O)[C@H](CC(C)C)NC(=O)[C@H](CCCNC(=N)N)NC(=O)[C@H](CCCNC(=N)N)NC(=O)[C@H](CCCCN)NC(=O)[C@H](C)NC(=O)[C@@H](N)Cc1c[nH]cn1)C(=O)N[C@@H](Cc1ccc(F)cc1)C(N)=O
# B5: H-His-Ala-Lys-Arg-Arg-Leu-Ile-2Nap-NH2 (peptide)
# peptide: H-HAKRRLI[2Nal]-NH2
# SMILES: CC[C@H](C)[C@H](NC(=O)[C@H](CC(C)C)NC(=O)[C@H](CCCNC(=N)N)NC(=O)[C@H](CCCNC(=N)N)NC(=O)[C@H](CCCCN)NC(=O)[C@H](C)NC(=O)[C@@H](N)Cc1c[nH]cn1)C(=O)N[C@@H](Cc1ccc2ccccc2c1)C(N)=O
# B6: H-His-Ala-Lys-Arg-Arg-Leu-Ile-Hof-NH2 (peptide)
# peptide: H-HAKRRLI[hPhe]-NH2
# SMILES: CC[C@H](C)[C@H](NC(=O)[C@H](CC(C)C)NC(=O)[C@H](CCCNC(=N)N)NC(=O)[C@H](CCCNC(=N)N)NC(=O)[C@H](CCCCN)NC(=O)[C@H](C)NC(=O)[C@@H](N)Cc1c[nH]cn1)C(=O)N[C@@H](CCc1ccccc1)C(N)=O
# B7: H-His-Ala-Lys-Arg-Arg-Leu-Ile-mFPhe-NH2 (peptide)
# peptide: H-HAKRRLI[Phe(3-F)]-NH2
# SMILES: CC[C@H](C)[C@H](NC(=O)[C@H](CC(C)C)NC(=O)[C@H](CCCNC(=N)N)NC(=O)[C@H](CCCNC(=N)N)NC(=O)[C@H](CCCCN)NC(=O)[C@H](C)NC(=O)[C@@H](N)Cc1c[nH]cn1)C(=O)N[C@@H](Cc1cccc(F)c1)C(N)=O
# Target: T1, CDK4/Cyclin D1 complex (UniProt P11802 1-303; P24385 1-295)
# T1 sequence (P11802 other isoform, or with tags, fused parts or gaps, chain 1 of 2): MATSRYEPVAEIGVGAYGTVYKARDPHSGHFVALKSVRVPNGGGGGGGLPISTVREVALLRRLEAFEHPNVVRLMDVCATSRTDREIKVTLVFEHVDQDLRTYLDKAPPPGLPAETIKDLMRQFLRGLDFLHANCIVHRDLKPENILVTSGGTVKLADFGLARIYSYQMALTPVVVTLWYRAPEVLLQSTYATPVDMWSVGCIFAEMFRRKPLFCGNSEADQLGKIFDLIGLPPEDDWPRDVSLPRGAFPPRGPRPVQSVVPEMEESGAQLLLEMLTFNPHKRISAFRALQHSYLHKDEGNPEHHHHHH
# T1 sequence (P24385 whole entry, chain 2 of 2): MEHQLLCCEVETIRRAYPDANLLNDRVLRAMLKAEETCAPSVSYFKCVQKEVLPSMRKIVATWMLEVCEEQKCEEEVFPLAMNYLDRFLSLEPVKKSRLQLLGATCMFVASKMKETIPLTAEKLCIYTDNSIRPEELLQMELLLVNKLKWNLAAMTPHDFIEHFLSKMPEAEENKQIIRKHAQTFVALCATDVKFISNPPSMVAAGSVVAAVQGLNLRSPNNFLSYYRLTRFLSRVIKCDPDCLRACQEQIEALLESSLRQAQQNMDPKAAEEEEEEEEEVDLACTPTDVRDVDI
# Experiment: cell-based or functional assay
"% Inhibition, cyclin D1/CDK4 kinase [%]","IC50, cyclin D1/CDK4 kinase, GST-pRb [µM]",Binder
72,–,HSKRRLIF-NH2 [p21 (152-159) HSKRRLIF-NH2]
65,32,HSKRRLIFS-NH2 [HSKRRLIFS-NH2]
10,–,DFYHSKRRL-NH2 [DFYHSKRRL-NH2]
70,22,FYHSKRRLIFS-NH2 [FYHSKRRLIFS-NH2]
35,–,DFYHSKRRLIAS-NH2 [DFYHSKRRLIAS-NH2]
10,–,DFYHSKRR-NH2 [DFYHSKRR-NH2]
70,20,YHSKRRLIFS-NH2 [YHSKRRLIFS-NH2]
20,–,DFYHSKRRLI-NH2 [DFYHSKRRLI-NH2]
10,–,DFYHSK-NH2 [DFYHSK-NH2]
60,40,DFYHSKRRLIFA-NH2 [DFYHSKRRLIFA-NH2]

# Target: T2, CDK2/Cyclin E complex (UniProt P24941 1-298; P24864 1-410)
# Experiment: cell-based or functional assay
"% Inhibition, cyclin E/CDK2 kinase [%]","IC50, cyclin E/CDK2 kinase, GST-pRb [µM]",Binder
80,3.4,HSKRRLIF-NH2 [p21 (152-159) HSKRRLIF-NH2]
80,3.4,HSKRRLIFS-NH2 [HSKRRLIFS-NH2]
50,200,DFYHSKRRL-NH2 [DFYHSKRRL-NH2]
80,6.8,FYHSKRRLIFS-NH2 [FYHSKRRLIFS-NH2]
20,–,DFYHSKRRLIAS-NH2 [DFYHSKRRLIAS-NH2]
40,–,DFYHSKRR-NH2 [DFYHSKRR-NH2]
80,7.3,YHSKRRLIFS-NH2 [YHSKRRLIFS-NH2]
35,–,DFYHSKRRLI-NH2 [DFYHSKRRLI-NH2]
45,200,DFYHSK-NH2 [DFYHSK-NH2]
70,5.4,DFYHSKRRLIFA-NH2 [DFYHSKRRLIFA-NH2]

# Target: T1, CDK4/Cyclin D1 complex
# Experiment: cell-based or functional assay
# Remark: another data set of the same source
"% Inhibition, cyclin D1/CDK4 kinase [%]","IC50, cyclin D1/CDK4 kinase [nM]",Binder
72,–,HSKRRLIF-NH2 [p21 (152-159) HSKRRLIF-NH2]
42,–,HSKRRLFG-NH2 [P21 C-terminius-LFG hybrid HSKRRLFG-NH2]
83,13000,KAXRRLIF (U at position 3 (read as Abu); C-terminal carboxamide) [P21 N-terminus-LIF hybrid KAURRLIF-NH2]
66,42000,KA[Abu]RRLFG-NH2 [P21 N-terminus peptide KAURRLFG-NH2]

# Target: T2, CDK2/Cyclin E complex
# Experiment: cell-based or functional assay
# Remark: another data set of the same source
"% Inhibition, cyclin E/CDK2 kinase [%]","IC50, cyclin E/CDK2 kinase [nM]",Binder
80,3400,HSKRRLIF-NH2 [p21 (152-159) HSKRRLIF-NH2]
82,900,HAKRRLFG-NH2 [P21 C-terminus (S153A) LFG HAKRRLFG-NH2]
82,1600,HSKRRLFG-NH2 [P21 C-terminius-LFG hybrid HSKRRLFG-NH2]
78,–,KAXRRLIF (U at position 3 (read as Abu); C-terminal carboxamide) [P21 N-terminus-LIF hybrid KAURRLIF-NH2]
86,74,KA[Abu]RRLFG-NH2 [P21 N-terminus peptide KAURRLFG-NH2]

# Target: T3, CDK2/cyclin A (UniProt P24941 1-298; P20248 1-432)
# Experiment: cell-based or functional assay
row,"Relative activity, Kinase Inhibition (CDK2/cyclin A kinase assay, pRb substrate, [ATP] = 100 µM)",Binder
1,0.3 relative to H-His-Ala-Lys-Arg-Arg-Leu-Ile-Phe-NH2 (=1),H-HAKRRLAF-NH2 [H-His-Ala-Lys-Arg-Arg-Leu-Ala-Phe-NH2]

# Target: T3, CDK2/cyclin A
# Experiment: cell-based or functional assay
# Remark: another data set of the same source
row,"Relative activity, Kinase Inhibition (CDK2/cyclin A kinase assay, pRb substrate, [ATP] = 100 µM)",Binder
1,0.2 relative to H-His-Ala-Lys-Arg-Arg-Leu-Ile-Phe-NH2 (=1),B1
2,0.3 relative to H-His-Ala-Lys-Arg-Arg-Leu-Ile-Phe-NH2 (=1),B2
3,0.3 relative to H-His-Ala-Lys-Arg-Arg-Leu-Ile-Phe-NH2 (=1),H-HAKRRLIW-NH2 [H-His-Ala-Lys-Arg-Arg-Leu-Ile-Trp-NH2]
4,< 0.1 relative to H-His-Ala-Lys-Arg-Arg-Leu-Ile-Phe-NH2 (=1),B3
5,1 relative to H-His-Ala-Lys-Arg-Arg-Leu-Ile-Phe-NH2 (=1),B4
6,1.2 relative to H-His-Ala-Lys-Arg-Arg-Leu-Ile-Phe-NH2 (=1),B5
7,0.3 relative to H-His-Ala-Lys-Arg-Arg-Leu-Ile-Phe-NH2 (=1),H-HAKRRLIY-NH2 [H-His-Ala-Lys-Arg-Arg-Leu-Ile-Tyr-NH2]
8,< 0.1 relative to H-His-Ala-Lys-Arg-Arg-Leu-Ile-Phe-NH2 (=1),B6
9,0.3 relative to H-His-Ala-Lys-Arg-Arg-Leu-Ile-Phe-NH2 (=1),H-HAKRRLIL-NH2 [H-His-Ala-Lys-Arg-Arg-Leu-Ile-Leu-NH2]
10,< 0.1 relative to H-His-Ala-Lys-Arg-Arg-Leu-Ile-Phe-NH2 (=1),H-HAKRRLIK-NH2 [H-His-Ala-Lys-Arg-Arg-Leu-Ile-Lys-NH2]
11,0.8 relative to H-His-Ala-Lys-Arg-Arg-Leu-Ile-Phe-NH2 (=1),B7
